Data published in patent US20110053195.

Tests used:
[1] = tested on: Wheat xylanase inhibitors WXI11.5, eluted from the Xy1A1A affinity column with 50% ethylene glycol pH 11.5
[2] = tested on: xylanase inhibitors present in wheat extract (WE)

Pichia pastoris produced Xy1A1A_E79A inactive xylanase, sequence (chain, as listed by the source E79A): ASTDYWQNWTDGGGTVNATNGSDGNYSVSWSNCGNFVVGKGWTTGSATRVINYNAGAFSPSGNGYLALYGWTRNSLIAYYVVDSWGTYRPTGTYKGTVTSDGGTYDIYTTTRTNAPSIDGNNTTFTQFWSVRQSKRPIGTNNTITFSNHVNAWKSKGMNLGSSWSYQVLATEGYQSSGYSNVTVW

Pichia pastoris produced Xy1A1A_E79A inactive xylanase
% Residual Activity of Avizyme 1310 with WXI pH11.5 (0.58 µg/ml) and XylA1A E79A (100 µg/ml) [1]: 121%
% Residual Activity of XylA1A with WXI pH11.5 (0.58 µg/ml) and XylA1A E79A (100 µg/ml) [1]: 96.1%
Xylanase Activity (umol/min/mg) of Avizyme 1310 with WXI pH11.5 (0.58 µg/ml) and XylA1A E79A (100 µg/ml) [1]: 6880 µmol/min/mg
Xylanase Activity (umol/min/mg) of XylA1A with WXI pH11.5 (0.58 µg/ml) and XylA1A E79A (100 µg/ml) [1]: 4420 µmol/min/mg
recovery of xylanase activity (azo-WAXY, A595) of added Xy1A1A in wheat flour extract [2]: Of the 24 isolates tested, 9 showed recovery of xylanase activity
